According to patent publication US20250282857A1, “TGF-BETA INHIBITORS AND USE THEREOF” (SCHOLAR ROCK, INC., priority 2021, published 2025):

Tests used:
[1] = target: Cell-associated proTGFβ1 complexes (hGARP-proTGFβ1 and hLRRC33-proTGFβ1); assay: BLI (Octet)
[2] = target: Matrix-associated proTGFβ1 complexes (hLTBP1-proTGFβ1 and hLTBP3-proTGFβ1); assay: BLI (Octet)
[3] = target: Cell-associated proTGFβ1 complexes (hGARP-proTGFβ1 and hLRRC33-proTGFβ1); assay: MSD-SET, hIgG4
[4] = target: Matrix-associated proTGFβ1 complexes (hLTBP1-proTGFβ1 and hLTBP3-proTGFβ1); assay: MSD-SET, hIgG4
[5] = tested on: matrix-associated vs cell-associated proTGFβ1 complexes; assay: MSD-SET: fold bias, cell average over matrix average; type: binding, human; conditions: ratio of average KD
Description: Column (A) of the table lists monoclonal antibodies with discrete amino acid sequences. […] Columns (B), (D), (E) and (F) provide affinities of each of the listed antibodies, measured in KD. […] Average KD values of (B) and (C) are shown in the corresponding column (D), which collectively represents affinities of the antibodies to ECM- or matrix-associated proTGFβ1 complexes. Similarly, Average KD values of (E) and (F) are shown in the corresponding column (G), which collectively represents affinities of the antibodies to cell-surface or cell-associated proTGFβ1 complexes. Finally, relative ratios between the average KD values from columns (D) and (G) are expressed as “fold bias” in column (H). Thus, the greater the number of column (H) is, the greater bias exists for the particular antibody, when comparing binding preferences of the antibody for matrix-associated complexes and cell-surface complexes. This is one way of quantitatively representing and comparing inherent bias of antibodies to their target complexes. Such analyses may be useful in guiding the selection process for a candidate antibody for particular therapeutic use.
Solution equilibrium titration (“SET”) is an assay whereby binding between two molecules (such as an antigen and an antibody that binds the antigen) can be measured at equilibrium in a solution. […]

Row | Cell AVRG (average KD, hGARP and hLRRC33 complexes) [1] | ECM AVRG (average KD, hLTBP1 and hLTBP3 complexes) [2] | Cell AVRG (average KD, hGARP and hLRRC33 complexes) [3] | ECM AVRG (average KD, hLTBP1 and hLTBP3 complexes) [4] | Molecule | (H) G/D (fold bias) [5]
1 | 0.644 nM | 0.246 nM |  |  | Ab21 (antibody, V domains shown) VH: EVQLVESGGGLVQPGGSLRLSCAASGFTFSSFSMDWVRQAPGKGLEWVSYISPDASTIYYADSVKGRFTISRDNAKNSLYLQMNSLRAEDTAVYYCARGVLDYGDMLDPWGQGTLVTVSS VL: DIQMTQSPSSLSASVGDRVTITCQASQDITNYLNWYQQKPGKAPKLLIYDASNLETGVPSRFSGSGSGTDFTFTISSLQPEDIATYYCQQADNHPPWTFGGGTKVEIK | 
2 |  |  | 2.3 nM | 5.05 nM | Ab4 (antibody, IgG4, V domains shown) VH: EVQLVESGGGLVQPGGSLRLSCAASGFTFSSYSMNWVRQAPGKGLEWVSYISSSSSTIYYADSVKGRFTISRDNAKNSLYLQMNSLRAEDTAVYYCARGVLDYGDMLDPWGQGTLVTVSS VL: DIQMTQSPSSLSASVGDRVTITCQASQDITNYLNWYQQKPGKAPKLLIYDASNLETGVPSRFSGSGSGTDFTFTISSLQPEDIATYYCQQADNHPPWTFGGGTKVEIK | 0.42 fold
3 | 0.897 nM | 0.443 nM |  |  | Ab23 (antibody, V domains shown) VH: EVQLVESGGGLVQPGGSLRLSCAASGFTFSSFSMNWVRQAPGKGLEWVSYISPSADTIYYADSVKGRFTISRDNAKNTLYLQMNSLRAEDTAVYYCARGVLDYGDMLDPWGQGTLVTVSS VL: DIQMTQSPSSLSASVGDRVTITCQASQDITNYLNWYQQKPGKAPKLLIYDASNLETGVPSRFSGSGSGTDFTFTISSLQPEDIATYYCQQADNHPPWTFGGGTKVEIK | 
4 | 0.492 nM | 0.197 nM | 0.072 nM | 0.026 nM | Ab26 (antibody, IgG4, V domains shown) VH: EVQLVESGGGLVQPGGSLRLSCAASGFTFSSFSMDWVRQAPGKGLEWVSYISPDASTIYYADSVKGRFTISRDNAKNTLYLQMNSLRAEDTAVYYCARGVLDYGDMLDPWGQGTLVTVSS VL: DIQMTQSPSSLSASVGDRVTITCQASQDITNYLNWYQQKPGKAPKLLIYDASNLETGVPSRFSGSGSGTDFTFTISSLQPEDIATYYCQQADNHPPWTFGGGTKVEIK | 
5 | 0.361 nM | 0.208 nM |  |  | Ab27 (antibody, V domains shown) VH: EVQLVESGGGLVQPGGSLRLSCAASGFTFSFYAMNWVRQAPGKGLEWVSYISPDASTIYYADSVKGRFTISRDNAKNSLYLQMNSLRAEDTAVYYCARGVLDYGDMLDPWGQGTLVTVSS VL: DIQMTQSPSSLSASVGDRVTITCQASQDITNYLNWYQQKPGKAPKLLIYDASNLETGVPSRFSGSGSGTDFTFTISSLQPEDIATYYCQQADNHPPWTFGGGTKVEIK | 
6 | 0.495 nM | 0.208 nM | 0.058 nM | 0.017 nM | Ab31 (antibody, IgG4, V domains shown) VH: EVQLVESGGGLVQPGGSLRLSCAASGFTFSSFSMDWVRQAPGKGLEWVSYISPDASTIYYADSVKGRFTISRDNAKNTLYLQMNSLRAEDTAVYYCARAVLDYGDMLDPWGQGTLVTVSS VL: DIQMTQSPSSLSASVGDRVTITCQASQDITNYLNWYQQKPGKAPKLLIYDASNLETGVPSRFSGSGSGTDFTFTISSLQPEDIATYYCQQADNHPPWTFGGGTKVEIK | 
7 | 0.684 nM | 0.296 nM | 0.081 nM | 0.029 nM | Ab30 (antibody, IgG4, V domains shown) VH: EVQLVESGGGLVQPGGSLRLSCAASGFTFSSFSMDWVRQAPGKGLEWVSYISPDASTIYYADSVKGRFTISRDNAKNSLYLQMNSLRAEDTAVYYCARGTLDYGDMLDPWGQGTLVTVSS VL: DIQMTQSPSSLSASVGDRVTITCQASQDITNYLNWYQQKPGKAPKLLIYDASNLETGVPSRFSGSGSGTDFTFTISSLQPEDIATYYCQQADNHPPWTFGGGTKVEIK | 
8 | 0.449 nM | 0.184 nM |  |  | Ab25 (antibody, V domains shown) VH: EVQLVESGGGLVQPGGSLRLSCAASGFTFGSFSMDWVRQAPGKGLEWVSYISPDASTIYYADSVKGRFTISRDNAKNSLYLQMNSLRAEDTAVYYCARGVLDYGDMLDPWGQGTLVTVSS VL: DIQMTQSPSSLSASVGDRVTITCQASQDITNYLNWYQQKPGKAPKLLIYDASNLETGVPSRFSGSGSGTDFTFTISSLQPEDIATYYCQQADNHPPWTFGGGTKVEIK | 
9 | 0.304 nM | 0.155 nM | 0.024 nM | 0.012 nM | Ab29 (antibody, IgG4, V domains shown) VH: EVQLVESGGGLVQPGRSLRLSCAASGFTFSSFAMNWVRQAPGKGLEWVSYISPDASTIYYAGSVKGRFTISRDNAKNSLYLQMNSLRAEDTAVYYCVRAVLDYGDMLDPWGQGTLVTVSS VL: DIQMTQSPSSLSASVGDRVTITCQASQDITNYLNWYQQKPGKAPKLLIYDASNLETGVPSRFSGSGSGTDFTFTISSLQPEDIATYYCQQADNHPPWTFGGGTKVEIK | 
10 | 0.537 nM | 0.222 nM | 0.1 nM | 0.023 nM | Ab24 (antibody, IgG4, V domains shown) VH: EVQLVESGGGLVQPGRSLRLSCAASGFTFSSFAMYWVRQAPGKGLEWVSYISPDASTIYYADSVKGRFTISRDNAKNSLYLQMNSLRAEDTAVYYCARGVLDYGDMLDPWGQGTLVTVSS VL: DIQMTQSPSSLSASVGDRVTITCQASQDITNYLNWYQQKPGKAPKLLIYDASNLETGVPSRFSGSGSGTDFTFTISSLQPEDIATYYCQQADNHPPWTFGGGTKVEIK | 
11 | 0.603 nM | 0.328 nM |  |  | Ab28 (antibody, V domains shown) VH: EVQLVESGGGLVQPGGSLRLSCAASGFTFSSFSMDWVRQAPGKGLEWVSYISPDASTIYYADSVKGRFTISRDNAKNSLYLQMNSLRAEDTAVYYCVRGVLDYGDMLDPWGQGTLVTVSS VL: DIQMTQSPSSLSASVGDRVTITCQASQDITNYLNWYQQKPGKAPKLLIYDASNLETGVPSRFSGSGSGTDFTFTISSLQPEDIATYYCQQADNHPPWTFGGGTKVEIK | 
12 | 0.597 nM | 0.242 nM | 0.051 nM | 0.032 nM | Ab32 (antibody, IgG4, V domains shown) VH: EVQLVESGGGLVQPGGSLRLSCAASGFTFSSFSMNWVRQAPGKGLEWVSYISPSADTIYYADSVKGRFTISRDNAKNTLYLQMNSLRAEDTAVYYCARGVWDMGDMLDPWGQGTLVTVSS VL: DIQMTQSPSSLSASVGDRVTITCQASQDITNYLNWYQQKPGKAPKLLIYDASNLETGVPSRFSGSGSGTDFTFTISSLQPEDIATYYCQQADNHPPWTFGGGTKVEIK | 
13 | 0.695 nM | 0.324 nM | 0.114 nM | 0.042 nM | Ab22 (antibody, IgG4, V domains shown) VH: EVQLVESGGGLVQPGGSLRLSCAASGFTFGSFSMNWVRQAPGKGLEWVSYIHSDASTIYYADSVKGRFTISRDNAKNSLYLQMNSLRAEDTAVYYCARGVLDYGDMLDPWGQGTLVTVSS VL: DIQMTQSPSSLSASVGDRVTITCQASQDITNYLNWYQQKPGKAPKLLIYDASNLETGVPSRFSGSGSGTDFTFTISSLQPEDIATYYCQQADNHPPWTFGGGTKVEIK | 
14 | 0.302 nM | 0.145 nM | 0.027 nM | 0.009 nM | Ab33 (antibody, IgG4, V domains shown) VH: EVQLVESGGGLVQPGGSLRLSCAASGFTFSSFSMNWVRQAPGKGLEWVSYISPSADTIYYADSVKGRFTISRDNAKNTLYLQMNSLRAEDTAVYYCAHGVLDYGDMLDPWGQGTLVTVSS VL: DIQMTQSPSSLSASVGDRVTITCQASQDITNYLNWYQQKPGKAPKLLIYDASNLETGVPSRFSGSGSGTDFTFTISSLQPEDIATYYCQQADNHPPWTFGGGTKVEIK | 
